Columns and labels:
[1] = target: endogenous GPC2 on high-GPC2-expressing neuroblastoma cell lines (Homo sapiens (Human)., UniProt Q8N158); test: flow cytometry on cells
[2] = target: murine Gpc2 on the surface of cells (Gpc2 pLenti CMV puro vector) (Mus musculus (Mouse)., UniProt Q8BKV1); test: flow cytometry on cells
[3] = target: GPC2 clone of the Membrane Proteome Array (Homo sapiens (Human)., UniProt Q8N158); test: flow cytometry on cells
[4] = target: human GPC2 on the surface of cells (GPC2 pLenti CMV puro vector) (Homo sapiens (Human)., UniProt Q8N158); test: flow cytometry on cells
[5] = target: GPC2^24-554 (fully glycanated) (Homo sapiens (Human)., UniProt Q8N158); test: BLI
[6] = target: GPC2^24-493 (fully glycanated) (Homo sapiens (Human)., UniProt Q8N158); test: BLI

Measured: binding result

Chain of murine Gpc2 on the surface of cells (Gpc2 pLenti CMV puro vector) (Q8BKV1 22-556): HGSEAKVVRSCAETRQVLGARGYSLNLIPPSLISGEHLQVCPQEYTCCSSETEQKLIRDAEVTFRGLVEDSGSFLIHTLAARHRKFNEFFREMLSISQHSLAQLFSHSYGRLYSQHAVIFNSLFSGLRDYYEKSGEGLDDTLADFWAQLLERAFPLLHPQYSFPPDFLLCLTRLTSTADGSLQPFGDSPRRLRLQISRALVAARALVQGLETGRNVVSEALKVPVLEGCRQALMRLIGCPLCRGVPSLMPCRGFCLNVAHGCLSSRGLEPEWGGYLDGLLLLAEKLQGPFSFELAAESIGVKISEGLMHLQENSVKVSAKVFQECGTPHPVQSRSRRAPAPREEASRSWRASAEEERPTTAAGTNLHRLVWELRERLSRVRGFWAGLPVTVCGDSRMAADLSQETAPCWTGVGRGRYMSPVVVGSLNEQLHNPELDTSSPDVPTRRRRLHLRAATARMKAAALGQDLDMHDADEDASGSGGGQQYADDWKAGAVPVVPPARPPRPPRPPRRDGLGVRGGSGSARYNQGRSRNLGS
Chain of GPC2^24-493 (fully glycanated) (Q8N158 24-493): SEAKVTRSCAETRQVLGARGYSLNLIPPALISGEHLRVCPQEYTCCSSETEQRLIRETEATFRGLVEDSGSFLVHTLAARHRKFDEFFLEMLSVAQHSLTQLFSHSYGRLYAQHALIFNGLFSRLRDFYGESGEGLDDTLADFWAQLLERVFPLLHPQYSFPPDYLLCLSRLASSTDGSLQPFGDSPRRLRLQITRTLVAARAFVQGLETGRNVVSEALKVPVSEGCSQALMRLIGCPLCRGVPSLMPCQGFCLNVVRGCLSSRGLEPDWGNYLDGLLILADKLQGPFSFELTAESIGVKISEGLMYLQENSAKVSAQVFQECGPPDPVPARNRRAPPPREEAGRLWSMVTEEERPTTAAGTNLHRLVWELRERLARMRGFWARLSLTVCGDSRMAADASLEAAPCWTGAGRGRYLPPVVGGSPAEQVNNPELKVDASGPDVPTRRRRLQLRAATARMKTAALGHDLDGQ
Chain of human GPC2 on the surface of cells (GPC2 pLenti CMV puro vector) (Q8N158 24-554): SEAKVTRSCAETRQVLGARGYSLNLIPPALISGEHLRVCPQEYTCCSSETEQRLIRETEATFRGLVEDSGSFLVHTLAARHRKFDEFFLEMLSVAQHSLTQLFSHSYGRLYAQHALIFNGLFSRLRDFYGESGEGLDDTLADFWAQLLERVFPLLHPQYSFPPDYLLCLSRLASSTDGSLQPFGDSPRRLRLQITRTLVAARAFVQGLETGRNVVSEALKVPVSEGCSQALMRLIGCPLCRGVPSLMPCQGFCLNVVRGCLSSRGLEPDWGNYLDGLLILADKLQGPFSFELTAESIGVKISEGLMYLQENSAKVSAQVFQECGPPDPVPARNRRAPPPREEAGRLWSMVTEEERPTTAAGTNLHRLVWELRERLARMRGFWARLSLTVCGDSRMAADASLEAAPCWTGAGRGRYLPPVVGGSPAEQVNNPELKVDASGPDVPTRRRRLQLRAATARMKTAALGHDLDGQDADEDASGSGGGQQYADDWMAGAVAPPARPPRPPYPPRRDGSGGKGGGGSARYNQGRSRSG
Chain of GPC2^24-554 (fully glycanated) (Q8N158 24-554): as above
Chain of endogenous GPC2 on high-GPC2-expressing neuroblastoma cell lines (Q8N158 24-554): as above
Chain of GPC2 clone of the Membrane Proteome Array (Q8N158 24-554): as above

B1: D3-GPC2-IgG1 (fully human GPC2 antibody, full-length human IgG1) (antibody, V domains shown)
VH: EVQLVETGGGVVKPGGSLRLSCAASGFTFSDYYMSWIRQAPGKGLEWVSYISSSGSTIYYADSVKGRFTISRDNSKNTLYLQMNSLRAEDTAVYYCARESGYDYVFDYWGQGTLVAVSS
VL: DIQMTQSPSTLSAFVGDRVTITCRASQSISSWLAWYQQKPGKAPKLLIYAASTLQSGVPSRFSGSGSGTEFTLTISSLQPEDFATYYCQQLNSYPITFGQGTRLEIK
binds: [1] | [2] | [3] | [4]

B2: D3-GPC2 antigen-binding fragment (D3-GPC2-Fab) (Fab, V domains shown)
VH: B1 VH
VL: B1 VL
binds: [5] | [6]
